According to the supplement of paper PMC10567573:

B1: STX5 (parent)
chain: RSEFTLMAKRIGKDLSNTFAKLEK

Variants of: B1
Assay: protein stability index of a GFP-peptide fusion (GPS, HEK-293T) (PSI 1-6); higher = more stable
Conditions: c terminus: a fixed tail appended
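Further: lentivirally expressed fusions sorted by FACS into six bins by GFP to DsRed ratio, PSI derived from sequencing read proportions per bin multiplied by bin number.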

Variant	protein stability index
RSEFTLMAKRIGKDLSNTFACLEK	2.69
RSEFTLMAKRIGKDLSNTFAGLEK	2.21
RSEFTLMAKRIGKDLSNTFASLEK	2.95
RSEFTLMAKRIGKDLSNTFAQLEK	2.8
RSEFTLMAKRIGKDLSNTFADLEK	1.91
RSEFTLMAKRIGKDLSNTFAELEK	2.04
RSEFTLMAKRIGKDLSNTFAVLEK	1.4
RSEFTLMAKRIGKDLSNTFAPLEK	2.38
RSEFTLMAKRIGKDLSNTFAALEK	1.96
RSEFTLMAKRIGKDLSNTFANLEK	1.04
RSEFTLMAKRIGKDLSNTFAILEK	2.12
RSEFTLMAKRIGKDLVNTFAKLEK	3.75
RSEFTLMAKRIGKDLWNTFAKLEK	1.99
RSEFTLMAKRIGKDLMNTFAKLEK	1.72
RSEFTLMAKRIGKDLLNTFAKLEK	2.89
RSEFTLMAKRIGKDLYNTFAKLEK	3.19
RSEFTLMAKRIGKDLQNTFAKLEK	2.14
RSEFTLMAKRIGKDLINTFAKLEK	3.35
RSEFTLMAKRIGKDLKNTFAKLEK	3.85
RSEFTLMAKRIGKDLRNTFAKLEK	3.34
RSEFTLMAKRIGKDLPNTFAKLEK	2.46
RSEFTLMAKRIGKDLSNDFAKLEK	3.07
RSEFTLMAKRIGKDLSNWFAKLEK	1.96
RSEFTLMAKRIGKDLSNRFAKLEK	1.77

Variant	protein stability index
RSEFTLMAKRIGKDLSNAFAKLEK	2.31
RSEFTLMAKRIGKDLSNVFAKLEK	2.21
RSEFTLMAKRIGKDLSNNFAKLEK	1.27
RSEFTLMAKRIGKDLSNYFAKLEK	3.54
RSEFTLMAKRIGKDLSNGFAKLEK	3.21
RSEFTLMAKRIGKDLSNSFAKLEK	1
RSEFTLMAKRIGKDLSNHFAKLEK	2.41
RSEFTLMAKRIGKDLSNIFAKLEK	3.4
RSEFTLMAKRIGKDLSNEFAKLEK	2.94
RSEFTLMAKRIGKDLSNQFAKLEK	2.02
RSEFTLMAKRIGKDLSNFFAKLEK	4.45
RSEFTLMAKRIGKDLSNMFAKLEK	2.63
RSEFTLMAKRIGKDLSNKFAKLEK	3.25
RSEFTLMAKRIGKDLSNPFAKLEK	2.45
RSEFTLMAKRIGKDLSNCFAKLEK	2.41
RSEFTLMAKRIGKDLSNTFAKLIK	2.84
RSEFTLMAKRIGKDLSNTFAKLKK	5.04
RSEFTLMAKRIGKDLSNTFAKLCK	3.47
RSEFTLMAKRIGKDLSNTFAKLWK	2.37
RSEFTLMAKRIGKDLSNTFAKLMK	1.34
RSEFTLMAKRIGKDLSNTFAKLPK	2.32
RSEFTLMAKRIGKDLSNTFAKLSK	2.18
RSEFTLMAKRIGKDLSNTFAKLDK	2.2
RSEFTLMAKRIGKDLSNTFAKLAK	1.98

Variant	protein stability index
RSEFTLMAKRIGKDLSNTFAKLLK	3
RSEFTLMAKRIGKDLSNTFAKLFK	2.65
RSEFTLMAKRIGKDLSNTFAKLHK	3.8
RSEFTLMAKRIGKDLSNTKAKLEK	2.71
RSEFTLMAKRIGKDLSNTSAKLEK	3.85
RSEFTLMAKRIGKDLSNTMAKLEK	1.62
RSEFTLMAKRIGKDLSNTCAKLEK	2.69
RSEFTLMAKRIGKDLSNTWAKLEK	2.48
RSEFTLMAKRIGKDLSNTPAKLEK	3.94
RSEFTLMAKRIGKDLSNTIAKLEK	2.24
RSEFTLMAKRIGKDLSNTGAKLEK	3.57
RSEFTLMAKRIGKDLSNTYAKLEK	2.38
RSEFTLMAKRIGKDLSNTQAKLEK	3.44
RSEFTLMAKRIGKDLSNTEAKLEK	4.74
RSEFTLMAKRIGKDLSNTRAKLEK	3.88
RSEFTLMAKRIGKDLSNTNAKLEK	3.42
RSEFTLMAKRIGKDLSNTDAKLEK	4.69
RSEFTLMAKRIGKDLSNTTAKLEK	3.8
RSEFTLMAKRIGKDLSNTAAKLEK	2.79
RSEFTLMAKRIGKDLSNTVAKLEK	1.96
RSEFTLMAKRIGKDLSNTHAKLEK	3.27
RSEFTLMAKRIGKDLSNTFMKLEK	2.64
RSEFTLMAKRIGKDLSNTFVKLEK	2.24
RSEFTLMAKRIGKDLSNTFDKLEK	2.15

Variant	protein stability index
RSEFTLMAKRIGKDLSNTFTKLEK	2.69
RSEFTLMAKRIGKDLSNTFEKLEK	1.58
RSEFTLMAKRIGKDLSNTFWKLEK	2.44
RSEFTLMAKRIGKDLSNTFIKLEK	1.63
RSEFTLMAKRIGKDLSNTFNKLEK	1.84
RSEFTLMAKRIGKDLSNTFCKLEK	3.2
RSEFTLMAKRIGKDLSNTFPKLEK	3.3
RSEFTLMAKRIGKDLSNTFSKLEK	1.32
RSEFTLMAKRIGKDLSCTFAKLEK	2.02
RSEFTLMAKRIGKDLSLTFAKLEK	2.21
RSEFTLMAKRIGKDLSFTFAKLEK	2.34
RSEFTLMAKRIGKDLSDTFAKLEK	2.63
RSEFTLMAKRIGKDLSTTFAKLEK	2.75
RSEFTLMAKRIGKDLSYTFAKLEK	1.93
RSEFTLMAKRIGKDLSITFAKLEK	3.01
RSEFTLMAKRIGKDLSWTFAKLEK	1.81
RSEFTLMAKRIGKDLSSTFAKLEK	3.13
RSEFTLMAKRIGKDLSPTFAKLEK	2.5
RSEFTLMAKRIGKDLSGTFAKLEK	3
RSEFTLMAKRIGKDLSATFAKLEK	3.04
RSEFTLMAKRIGKDLSETFAKLEK	3.15
RSEFTLMAKRIGKDLSQTFAKLEK	1.61
